Consider one molecule from patent US20180057596A1 (AstraZeneca / MedImmune, published 2018).

Experiment [1] addresses T1, cynomolgus IL-4Rα HIS FLAG (cynomolgus).
T1 construct: also called Cyno IL4Rα HIS FLAG; not shown: HIS and FLAG tags and any vector-encoded linker of the cynomolgus HIS FLAG construct
T1 chain: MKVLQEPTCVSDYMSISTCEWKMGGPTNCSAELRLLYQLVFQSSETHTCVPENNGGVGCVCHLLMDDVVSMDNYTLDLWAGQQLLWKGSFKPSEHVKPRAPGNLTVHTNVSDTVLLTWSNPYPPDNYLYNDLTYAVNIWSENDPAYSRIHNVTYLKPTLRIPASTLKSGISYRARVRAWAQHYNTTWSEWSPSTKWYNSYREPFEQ
Nature of the experiment: SPR (BIAcore 2000), IgG captured on Protein G', receptor as analyte, 1:1 Langmuir. The procedure: (§1) In brief, Protein G′ (Sigma Aldrich, P4689) was covalently coupled to the surface of a CM5 sensor chip using standard amine coupling reagents according to manufacturer's instructions (BIAcore). This Protein G′ surface was used to capture a constant amount of purified anti-IL4R• antibodies or isotype control via the Fc domain. Human or cynomolgus IL-4R• HIS FLAG prepared in HBS-EP buffer (BIAcore AB), at a range of concentrations, between 100 nM and 0.2 nM, were passed over the sensor chip surface. […] The resulting sensorgrams were evaluated using BIA evaluation 4.1 software and fitted to 1:1 Langmuir binding model, to provide the relative binding data. The experiments were performed over the course of at least three separate days to calculate an average monovalent affinity.

Experiment [2] concerns the target T2, human IL-4Rα HIS FLAG (in house HEK-EBNA derived) (human, biotinylated where used as the labelled partner in the DELFIA assay).
T2 construct: also called HuIL-4Rα; Human IL4-Rα/FLAG/HIS tag
T2 chain: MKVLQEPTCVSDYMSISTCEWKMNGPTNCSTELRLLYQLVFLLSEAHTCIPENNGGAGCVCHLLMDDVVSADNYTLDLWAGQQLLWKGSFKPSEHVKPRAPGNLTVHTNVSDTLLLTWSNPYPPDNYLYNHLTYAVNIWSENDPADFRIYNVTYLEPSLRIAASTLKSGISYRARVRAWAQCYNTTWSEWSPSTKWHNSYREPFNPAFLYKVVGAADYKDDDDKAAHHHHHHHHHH
Described as above. The procedure:
as §1

Experiment [3] concerns the target T3, murine IL4Rα Fc (R & D Systems 530-MR-100) (murine, UniProt P16382 26-233, limits assumed).
T3 construct: bought protein; not shown: Fc part of the bought fusion
T3 sequence (looked up): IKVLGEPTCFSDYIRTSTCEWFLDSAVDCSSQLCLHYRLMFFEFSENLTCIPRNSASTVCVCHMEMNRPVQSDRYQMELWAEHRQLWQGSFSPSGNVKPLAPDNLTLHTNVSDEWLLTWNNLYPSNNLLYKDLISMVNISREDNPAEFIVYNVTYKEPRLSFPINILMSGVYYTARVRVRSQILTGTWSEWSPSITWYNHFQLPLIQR
Nature of the experiment: DELFIA epitope competition, no inhibition of biotinylated human IL-4Rα HIS FLAG binding to immobilised IgG. The procedure:
(§2) Titrations of IL-4R• species including cynomolgus IL-4R• HIS Fc (in house HEK-EBNA derived), human IL-4R• 175V Fc (AstraZeneca), human IL-4R• Fc and murine IL-4R• (both R & D Systems) were tested in each assay to establish the species cross-reactivity of the antibodies. Unbiotinylated human IL-4R• HIS FLAG was used as a positive control. Human and cynomolgus IL-4R• HIS Fc, along with Human IL-4R• 175V Fc, produced overlapping inhibition curves with […] IC₅₀ values. […] Details of the protocol are provided in the Materials and Methods section 4.6.1.
(§3) Purified IgG were adsorbed onto 96-well Maxisorp microtitre plates (Nunc) in PBS at a concentration which gave a significant signal when biotinylated human IL-4R• HIS FLAG was added at approximately its estimated KD for that particular IgG. Excess IgG was washed away with PBS-Tween (0. 1% v/v) and the wells were blocked with PBS-Marvel (3% w/v) for 1 h. […] Unbiotinylated human IL-4R• HIS FLAG was used as a positive control. […] These mixtures were then transferred onto the blocked IgG and allowed to equilibrate for 1.5 h. Unbound antigen was removed by washing with PBS-Tween (0.1% v/v), while the remaining biotinylated human IL-4R• was detected by streptavidin-Europium3+ conjugate (DELFIA• detection, PerkinElmer).

Experiment [4] addresses T4, human IL-13Rα1 Fc (R & D Systems, 146-IR-100) (human, UniProt P78552 27-343, limits assumed).
T4 construct: bought protein; not shown: Fc part of the bought fusion
T4 sequence (looked up): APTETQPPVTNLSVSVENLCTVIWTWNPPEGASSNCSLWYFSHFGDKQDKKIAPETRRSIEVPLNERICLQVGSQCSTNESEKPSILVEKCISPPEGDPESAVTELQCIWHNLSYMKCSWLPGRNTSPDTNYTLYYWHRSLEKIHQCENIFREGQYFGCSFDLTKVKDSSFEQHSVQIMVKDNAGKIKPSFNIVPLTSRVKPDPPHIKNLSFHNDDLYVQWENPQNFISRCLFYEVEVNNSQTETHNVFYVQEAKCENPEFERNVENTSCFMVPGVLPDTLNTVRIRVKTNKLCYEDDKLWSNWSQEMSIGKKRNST
Described as above. The procedure: as §2, §3

The target in experiment [5] is T5, human IL-13Rα2 Fc (R & D Systems, 614-IR-100) (human, UniProt Q14627 27-343, limits assumed).
T5 construct: bought protein; not shown: Fc part of the bought fusion
T5 sequence (looked up): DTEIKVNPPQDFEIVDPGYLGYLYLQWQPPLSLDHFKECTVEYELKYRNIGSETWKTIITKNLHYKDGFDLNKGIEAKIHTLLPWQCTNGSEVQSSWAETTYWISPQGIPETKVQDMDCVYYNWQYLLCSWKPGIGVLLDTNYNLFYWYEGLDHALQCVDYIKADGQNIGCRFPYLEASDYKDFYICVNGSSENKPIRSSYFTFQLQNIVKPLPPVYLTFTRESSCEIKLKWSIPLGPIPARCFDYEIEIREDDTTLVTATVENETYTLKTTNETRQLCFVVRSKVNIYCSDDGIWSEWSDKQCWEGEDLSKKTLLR
The experiment is described as above. The procedure:
as §2, §3

The target of experiment [6] is T6, Human common gamma chain (sIL-2Rγ) (R & D Systems 384-RG-050-CF) (human, UniProt P31785 23-254).
T6 construct: bought protein; also called common gamma chain (IL-2Rγ)
T6 sequence (looked up): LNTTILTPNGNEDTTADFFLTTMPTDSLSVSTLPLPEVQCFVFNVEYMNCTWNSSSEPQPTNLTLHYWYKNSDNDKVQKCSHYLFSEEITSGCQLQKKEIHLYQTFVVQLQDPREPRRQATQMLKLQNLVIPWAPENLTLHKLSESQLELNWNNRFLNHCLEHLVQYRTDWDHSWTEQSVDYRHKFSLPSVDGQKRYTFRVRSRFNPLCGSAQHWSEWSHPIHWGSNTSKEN
The experiment is described as above. The procedure:
as §2, §3

Experiment [7] has as its target T1, cynomolgus IL-4Rα HIS FLAG. Nature of the experiment: SPR (BIAcore 2000), value in parentheses under the mean, taken as a single determination. As for the experimental part:
as §1
For orientation: In SPR one partner is held on a chip, and binding of the other changes the refractive index at the surface.

Experiment [8] addresses T2, human IL-4Rα HIS FLAG (in house …). The description is as above. As for the experimental part: as §1

Several values for one entry are separate records, joined by “and”; a condition that tells them apart may be missing. Equal entries are not always repeated.

B1: Antibody 37GL IgG (antibody, V domains shown)
VH: QVQLVQSGAEVKKPGASVKVSCKASGYAFTSYYMHWVRQAPGQGLEWMGIINPRGGSTSYAQKFQGRVTMTRDTSTSTVYMELSSLRSEDTAVYYCARGKYWMYDWGKGTLVTVSS
VL: QSVLTQPPSVSAAPGQKVTISCSGGGSSIGNSYVSWYQQLPGTAPKLLIYDNNKRPSGIPDRFSGSKSGTSATLGITGLQTGDEADYYCGTWDTSPVWEWPFGTGTKLTVL
notes: germlined IgG; also called Antibody 37 (FGL)
The Kd is the constant that tells how readily two partners part at equilibrium. A word on the koff: it is a measure of how fast the partners let go of each other. The low end stands for a long-lived complex, the high end for a short-lived complex. A word on the kon: it is a measure of how fast the partners come together. A higher kon goes with fast association. Turning to B1, the Kd in experiment [1] is 4.41 nM; in experiment [2], 0.504 nM; in experiment [7], 4.67 nM and 4.34 nM and 4.41 nM; in experiment [8], 0.533 nM and 0.531 nM and 0.459 nM. Also, the koff in experiment [1] turned out to be 0.00108 s⁻¹; in experiment [2], 0.000346 s⁻¹. Also, the kon in experiment [1] came out at 244000 M⁻¹ s⁻¹; in experiment [2], 688000 M⁻¹ s⁻¹. The binding result in experiment [3], in experiment [4], in experiment [5] and in experiment [6] was “no binding” each time.
